This is an account of results in PMC5473249.

The assay has as its target FabXol3 (omalizumab-derived Fab with three point mutations). Description: SPR; FabXol3, FabXol or intact omalizumab amine-coupled at low density; IgE-Fc flowed over, 2-fold dilutions from 100 nM; 20 mM HEPES pH 7.4, 150 mM NaCl, 0.005% P-20; 25 °C; monophasic kinetics at low concentrations. In general terms: In SPR one partner is held on a chip, and binding of the other changes the refractive index at the surface.

B1: IgE-Fc, P01854 105-427 (domain or fragment)
chain: DIVASRDFTPPTVKILQSSCDGGGHFPPTIQLLCLVSGYTPGTIQITWLEDGQVMDVDLSTASTTQEGELASTQSELTLSQKHWLSDRTYTCQVTYQGHTFEDSTKKCADSNPRGVSAYLSRPSPFDLFIRKSPTITCLVVDLAPSKGTVQLTWSRASGKPVNHSTRKEEKQRNGTLTVTSTLPVGTRDWIEGETYQCRVTHPHLPRALMRSTTKTSGPRAAPEVYAFATPEWPGSRDKRTLACLIQNFMPEDISVQWLHNEVQLPDARHSTTQPRKTKGSGFFVFSRLEVTRAEWEQKDEFICRAVHEAASPSQTVQRAVSVNPGK
modifications: not checked
On to B1, for which the Kd (usually the constant that tells how readily two partners part at equilibrium) was found to be 1 nM, the koff (commonly the rate constant with which the complex falls apart) came to 0.0008 s⁻¹ and the on-rate constant (kon) (usually a measure of how fast the partners come together) came out at 1.2e+06 M⁻¹ s⁻¹.
